This passage reports response results from article PMC6323126.

First the molecules themselves.
B1: FHA domain (residues 5–135) of SLMAP [human] / MST2 kinase domain (residues 1–308) [human] (parent)
chain 1: LAIFTCRPNSHPFQERHVYLDEPIKIGRSVARCRPAQNNATFDCKVLSRNHALVWFDHKTGKFYLQDTKSSNGTFINSQRLSRGSEESPPCEILSGDIIQFGVDVTENTRKVTHGCIVSTIKLFLPDGMEA
chain 2: MEQPPAPKSKLKKLSEDSLTKQPEEVFDVLEKLGEGSYGSVFKAIHKESGQVVAIKQVPVESDLQEIIKEISIMQQCDSPYVVKYYGSYFKNTDLWIVMEYCGAGSVSDIIRLRNKTLIEDEIATILKSTLKGLEYLHFMRKIHRDIKAGNILLNTEGHAKLADFGVAGQLTDTMAKRNTVIGTPFWMAPEVIQEIGYNCVADIWSLGITSIEMAEGKPPYADIHPMRAIFMIPTNPPPTFRKPELWSDDFTDFVKKCLVKNPEQRATATQLLQHPFIKNAKPVSILRDLITEAMEIKAKRHEEQQRE

In the test the parent is B1. Put plainly: BLI. To be noted: with MST2 kinase domain (residues 1–308) [human]; read at the end of association (about 360 s); parent: 2.1; read off a plot.
For chain 1 LAIFTCRPNSHPFQERHVYLDEPIKIGRSVARCRPAQNNATFDCKVLSANHALVWFDHKTGKFYLQDTKSSNGTFINSQRLSRGSEESPPCEILSGDIIQFGVDVTENTRKVTHGCIVSTIKLFLPDGMEA, the response stood at 0.57 nm.
